Holding throughout (experiment): cell_activity
Data set [1] relates to TALEN ALS2_T02 right monomer (synthetic construct).
Data set [2] deals with TALEN ALS2_T01 left monomer (synthetic construct).
The test system of data set [3] is TALEN ALS1_T02 right monomer (synthetic construct).
For data set [4], the system named is TALEN ALS2_T01 right monomer (synthetic construct).
Data set [5] relates to TALEN ALS2_T02 left monomer (synthetic construct).
Data set [6] concerns TALEN ALS1_T02 left monomer (synthetic construct).
For data set [7], the system named is TALEN ALS1_T01 left monomer (synthetic construct). The conditions noted are these: yeast beta-galactosidase reporter, pair with P2, 37 C (0.83 at 30 C).
Data set [8] deals with TALEN ALS1_T01 right monomer (synthetic construct). The conditions noted are these: yeast beta-galactosidase reporter, pair with P1, 37 C (0.83 at 30 C).

With “CTGTCTCCTATTTCCTA (double strand) [ALS2_T02 right half-site (top strand)]”, the activity in data set [1] (endogenous site, N. benthamiana protoplasts, pair with P7, control 0.10%) came out at 66.9 % NHEJ. The sequence also yielded an activity (relative to I-SceI) in data set [1] (yeast beta-galactosidase reporter, pair with P7, 37 C (0.9 at 30 C)) of 1.
The sequence “TAGCTTGTTCCACATTT (double strand) [ALS2_T01 left half-site]” had an activity in data set [2] (endogenous site, N. benthamiana protoplasts, pair with P6, control 0.25%) of 74 % NHEJ. The sequence further gave an activity (relative to I-SceI) in data set [2] (yeast beta-galactosidase reporter, pair with P6, 37 C (0.9 at 30 C)) of 1.
Consider “TATAAGTTGATTCTTAA (double strand) [ALS1_T02 right half-site (top strand)]”, for which the activity in data set [3] (endogenous site, N. benthamiana protoplasts, pair with P3, control 0.55%) stood at 4.9 % NHEJ. The sequence further had an activity (relative to I-SceI) in data set [3] (yeast beta-galactosidase reporter, pair with P3, 37 C (0.90 at 30 C)) of 0.95.
The sequence “TGTCATGCTGGGTCAGA (double strand) [ALS2_T01 right half-site (top strand)]” registered an activity in data set [4] (endogenous site, N. benthamiana protoplasts, pair with P5, control 0.25%) of 74 % NHEJ. Moreover, the activity (relative to I-SceI) in data set [4] (yeast beta-galactosidase reporter, pair with P5, 37 C (0.9 at 30 C)) was 1.
Take “TTCTCTCGAGTCCTAGG (double strand) [ALS2_T02 left half-site]”: the activity in data set [5] (endogenous site, N. benthamiana protoplasts, pair with P8, control 0.10%) stood at 66.9 % NHEJ. Besides, the activity (relative to I-SceI) in data set [5] (yeast beta-galactosidase reporter, pair with P8, 37 C (0.9 at 30 C)) is 1.
In data set [6] (endogenous site, N. benthamiana protoplasts, pair with P4, control 0.55%), “TTGGACTTGTATGGGTT (double strand) [ALS1_T02 left half-site]” gave an activity of 4.9 % NHEJ. Also, in data set [6] (yeast beta-galactosidase reporter, pair with P4, 37 C (0.90 at 30 C)), the activity (relative to I-SceI) was 0.95.
As for “TTTAGTGCGATAAAGTT (double strand) [ALS1_T01 left half-site]”, the activity (relative to I-SceI) in data set [7] stood at 0.93.
In data set [8], “TTTTATTTCGTAAGCTA (double strand) [ALS1_T01 right half-site (top strand)]” showed an activity (relative to I-SceI) of 0.93.

Values taken from patent US20150291967.
